From PMC7083938, “NELL2-Robo3 complex structure reveals mechanisms of receptor activation for axon guidance” (Nature Communications, 2020)

Experiments:
Assay in all cases: flow cytometry on cells; biotinylated ligand at various concentrations, 30 min at 4 °C in PBS + 0.1% BSA, on Drosophila S2 cells displaying the partner (C-terminal FLAG, rat Neurexin-1 transmembrane helix); Cy5-streptavidin; gated on anti-FLAG positive cells; MFI fit to a single-site model; apparent KD
Settings in all cases: one partner purified
[1] = target: T1, hRobo3 FN1-3 I624A/L626A, biotinylated (human, UniProt Q96MS0 549-870, I624A | L626A, biotin on the Avi-tag (BirA))
T1 construct: human Robo3, FN domains 1-3, P549-L870; source: High Five cells (baculovirus), purified, biotinylated with BirA (general methods)
T1 sequence (looked up): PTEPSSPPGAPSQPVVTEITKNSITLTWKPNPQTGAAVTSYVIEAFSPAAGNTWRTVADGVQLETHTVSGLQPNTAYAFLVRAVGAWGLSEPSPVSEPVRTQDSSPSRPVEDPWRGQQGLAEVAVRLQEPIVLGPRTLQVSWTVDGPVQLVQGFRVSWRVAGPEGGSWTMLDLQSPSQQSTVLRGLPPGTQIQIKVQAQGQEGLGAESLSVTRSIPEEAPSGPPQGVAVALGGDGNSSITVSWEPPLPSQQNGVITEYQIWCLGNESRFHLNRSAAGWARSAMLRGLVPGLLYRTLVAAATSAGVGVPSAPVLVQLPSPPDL

[2] = target: T2, hRobo3 FN1-3 F594A/W602A, biotinylated (human, UniProt Q96MS0 549-870, F594A | W602A, biotin on the Avi-tag (BirA))
T2 construct: human Robo3, FN domains 1-3, P549-L870; source: High Five cells (baculovirus), purified, biotinylated with BirA (general methods)
T2 sequence (looked up): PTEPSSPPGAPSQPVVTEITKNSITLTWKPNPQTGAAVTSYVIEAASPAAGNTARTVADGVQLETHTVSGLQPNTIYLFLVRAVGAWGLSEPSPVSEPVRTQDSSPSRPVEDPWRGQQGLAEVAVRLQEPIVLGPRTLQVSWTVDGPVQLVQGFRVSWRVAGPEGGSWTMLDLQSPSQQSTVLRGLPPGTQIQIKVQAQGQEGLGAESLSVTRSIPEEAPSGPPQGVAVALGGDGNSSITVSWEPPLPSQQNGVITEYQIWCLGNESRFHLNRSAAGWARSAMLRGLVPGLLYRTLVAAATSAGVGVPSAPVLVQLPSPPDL

[3] = target: T3, hRobo3 FN1-3 E639A, biotinylated (human, UniProt Q96MS0 549-870, E639A, biotin on the Avi-tag (BirA))
T3 construct: human Robo3, FN domains 1-3, P549-L870; source: High Five cells (baculovirus), purified, biotinylated with BirA (general methods)
T3 sequence (looked up): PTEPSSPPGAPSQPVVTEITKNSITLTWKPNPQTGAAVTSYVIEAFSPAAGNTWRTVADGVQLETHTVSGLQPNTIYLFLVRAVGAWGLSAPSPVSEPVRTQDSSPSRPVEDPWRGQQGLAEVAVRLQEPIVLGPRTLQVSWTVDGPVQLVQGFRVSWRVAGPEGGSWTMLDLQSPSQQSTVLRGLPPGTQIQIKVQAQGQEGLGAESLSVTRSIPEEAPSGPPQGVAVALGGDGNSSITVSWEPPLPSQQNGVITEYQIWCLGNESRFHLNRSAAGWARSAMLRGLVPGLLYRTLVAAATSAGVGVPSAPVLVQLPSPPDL

[4] = target: T4, hRobo3 FN1-3 W635A, biotinylated (human, UniProt Q96MS0 549-870, W635A, biotin on the Avi-tag (BirA))
T4 construct: human Robo3, FN domains 1-3, P549-L870; source: High Five cells (baculovirus), purified, biotinylated with BirA (general methods)
T4 sequence (looked up): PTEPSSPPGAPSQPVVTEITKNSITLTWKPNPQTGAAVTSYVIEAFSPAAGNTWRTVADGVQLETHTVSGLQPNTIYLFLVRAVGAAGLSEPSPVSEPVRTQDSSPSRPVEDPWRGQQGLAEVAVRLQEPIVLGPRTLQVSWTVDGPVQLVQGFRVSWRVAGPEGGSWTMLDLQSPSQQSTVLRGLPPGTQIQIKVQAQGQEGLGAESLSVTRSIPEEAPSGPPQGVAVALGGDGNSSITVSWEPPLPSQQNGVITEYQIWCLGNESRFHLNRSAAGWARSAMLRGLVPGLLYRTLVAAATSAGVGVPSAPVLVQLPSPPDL

[5] = target: T5, hRobo3 FN1-3 R630A, biotinylated (human, UniProt Q96MS0 549-870, R630A, biotin on the Avi-tag (BirA))
T5 construct: human Robo3, FN domains 1-3, P549-L870; source: High Five cells (baculovirus), purified, biotinylated with BirA (general methods)
T5 sequence (looked up): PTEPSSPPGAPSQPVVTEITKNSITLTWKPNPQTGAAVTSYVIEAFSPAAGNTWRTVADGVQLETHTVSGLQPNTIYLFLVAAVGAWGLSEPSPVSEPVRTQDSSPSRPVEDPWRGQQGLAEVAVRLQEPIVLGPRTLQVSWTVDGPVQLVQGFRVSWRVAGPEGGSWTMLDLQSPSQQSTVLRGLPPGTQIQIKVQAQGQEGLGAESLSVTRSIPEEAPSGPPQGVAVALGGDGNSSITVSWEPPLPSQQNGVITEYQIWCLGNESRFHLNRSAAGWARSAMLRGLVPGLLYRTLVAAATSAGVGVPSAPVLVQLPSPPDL

Kd [1]: 6.5 µM
Kd [2]: ≥ 100 µM
Kd [3]: 1.1 µM
Kd [4]: 2.9 µM
Kd [5]: ≥ 100 µM
B1: hNELL2 EGF1-6 displayed on S2 cells (domain or fragment)
chain: not shown
notes: human NELL2, EGF domains 1-6, G397-T637; also called NELL2EGF1-6 WT (Actin 5C, C-terminal FLAG); FLAG-tagged NELL2 EGF1-6; source: Drosophila S2 cells, transiently transfected, on the cell surface; not shown: FLAG, C-terminal, kept; transmembrane helix of rat Neurexin-1, C-terminal, kept
